Source: article PMC9482650, “Quantitative fragmentomics allow affinity mapping of interactomes” (Nature Communications, 2022)

Legend:
Test in all cases: holdup assay
Design in all cases: key: below the threshold = too weak to quantify, mostly under pKd 3.1 to 4
APBA3_1, O96018 = target: T1, APBA3_1, O96018
T1 sequence (O96018 389-490, limits assumed, looked up): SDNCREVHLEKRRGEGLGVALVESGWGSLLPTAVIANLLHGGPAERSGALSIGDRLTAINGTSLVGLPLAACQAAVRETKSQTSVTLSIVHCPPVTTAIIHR

CARD11, Q9BXL7 = target: T2, CARD11, Q9BXL7
T2 sequence (Q9BXL7 662-765, limits assumed, looked up): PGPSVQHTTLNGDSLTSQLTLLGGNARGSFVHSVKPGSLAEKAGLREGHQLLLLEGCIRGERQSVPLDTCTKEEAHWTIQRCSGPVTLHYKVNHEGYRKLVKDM

DFNB31_1, Q9P202 = target: T3, DFNB31_1, Q9P202
T3 sequence (Q9P202 135-233, limits assumed, looked up): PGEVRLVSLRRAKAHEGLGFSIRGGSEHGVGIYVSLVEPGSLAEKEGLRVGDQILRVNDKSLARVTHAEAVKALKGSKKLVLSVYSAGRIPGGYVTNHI

DLG2_2, Q15700 = target: DLG2_2, Q15700
Chain of DLG2_2, Q15700 (Q15700 189-283): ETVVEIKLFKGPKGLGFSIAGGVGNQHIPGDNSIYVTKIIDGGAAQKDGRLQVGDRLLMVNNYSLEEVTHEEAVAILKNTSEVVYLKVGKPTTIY

DLG4_1, P78352 = target: DLG4_1, P78352
Chain of DLG4_1, P78352 (P78352 62-152): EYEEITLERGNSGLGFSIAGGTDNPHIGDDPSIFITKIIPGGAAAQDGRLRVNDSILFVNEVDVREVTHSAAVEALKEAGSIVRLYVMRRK

FRMPD2_2, Q68DX3 = target: FRMPD2_2, Q68DX3
Chain of FRMPD2_2, Q68DX3 (Q68DX3 944-1038): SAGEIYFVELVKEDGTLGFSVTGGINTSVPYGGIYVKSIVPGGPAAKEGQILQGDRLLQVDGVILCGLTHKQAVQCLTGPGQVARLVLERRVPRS

GRASP, Q7Z6J2 = target: GRASP, Q7Z6J2
Chain of GRASP, Q7Z6J2 (Q7Z6J2 96-193): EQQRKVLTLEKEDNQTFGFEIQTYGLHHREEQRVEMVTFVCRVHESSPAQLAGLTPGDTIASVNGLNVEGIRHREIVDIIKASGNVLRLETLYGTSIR

GRID2IP_1, A4D2P6 = target: GRID2IP_1, A4D2P6
Chain of GRID2IP_1, A4D2P6 (A4D2P6 1-87): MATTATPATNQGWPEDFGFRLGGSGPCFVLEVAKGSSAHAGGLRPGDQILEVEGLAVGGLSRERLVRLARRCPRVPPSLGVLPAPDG

GRIP1_3, Q9Y3R0 = target: T4, GRIP1_3, Q9Y3R0
T4 sequence (Q9Y3R0 247-346, limits assumed, looked up): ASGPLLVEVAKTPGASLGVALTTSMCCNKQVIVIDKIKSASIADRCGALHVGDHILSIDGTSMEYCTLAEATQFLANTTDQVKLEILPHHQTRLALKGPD

GRIP2_4, Q9C0E4 = target: GRIP2_4, Q9C0E4
Chain of GRIP2_4, Q9C0E4 (Q9C0E4 446-548): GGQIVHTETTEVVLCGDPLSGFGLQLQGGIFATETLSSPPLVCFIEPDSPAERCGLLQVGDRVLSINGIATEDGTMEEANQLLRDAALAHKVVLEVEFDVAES

GRIP2_7, Q9C0E4 = target: GRIP2_7, Q9C0E4
Chain of GRIP2_7, Q9C0E4 (Q9C0E4 934-1023): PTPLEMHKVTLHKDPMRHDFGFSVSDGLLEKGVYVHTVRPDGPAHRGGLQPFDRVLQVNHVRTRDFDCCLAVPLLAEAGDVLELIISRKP

HTRA1, Q92743 = target: HTRA1, Q92743
Chain of HTRA1, Q92743 (Q92743 360-477): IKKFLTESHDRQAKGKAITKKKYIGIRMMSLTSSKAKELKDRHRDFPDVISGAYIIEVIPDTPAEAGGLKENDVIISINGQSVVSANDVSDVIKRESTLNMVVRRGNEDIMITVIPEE

HTRA4, P83105 = target: T5, HTRA4, P83105
T5 sequence (P83105 378-476, limits assumed, looked up): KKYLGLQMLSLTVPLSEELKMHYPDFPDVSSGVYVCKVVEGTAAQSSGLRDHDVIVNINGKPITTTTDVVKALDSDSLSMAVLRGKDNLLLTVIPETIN

Inadl_2, Q8NI35 = target: Inadl_2, Q8NI35
Chain of Inadl_2, Q8NI35 (Q8NI35 238-335): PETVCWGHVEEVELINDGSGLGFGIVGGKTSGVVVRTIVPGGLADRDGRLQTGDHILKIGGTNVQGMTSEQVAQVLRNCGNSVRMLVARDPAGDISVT

Inadl_6, Q8NI35 = target: Inadl_6, Q8NI35
Chain of Inadl_6, Q8NI35 (Q8NI35 1058-1167): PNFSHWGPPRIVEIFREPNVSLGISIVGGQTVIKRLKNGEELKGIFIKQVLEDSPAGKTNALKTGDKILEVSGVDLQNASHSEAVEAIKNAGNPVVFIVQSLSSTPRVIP

LDB3, O75112 = target: LDB3, O75112
Chain of LDB3, O75112 (O75112 1-94): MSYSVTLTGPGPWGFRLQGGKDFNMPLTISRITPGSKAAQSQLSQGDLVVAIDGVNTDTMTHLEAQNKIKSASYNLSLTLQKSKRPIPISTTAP

LIMK2, P53671 = target: LIMK2, P53671
Chain of LIMK2, P53671 (P53671 143-248): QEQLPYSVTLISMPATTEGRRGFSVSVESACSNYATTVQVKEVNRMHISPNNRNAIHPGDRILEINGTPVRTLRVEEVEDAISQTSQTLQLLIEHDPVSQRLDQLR

LIN7C, Q9NUP9 = target: T6, LIN7C, Q9NUP9
T6 sequence (Q9NUP9 88-185, limits assumed, looked up): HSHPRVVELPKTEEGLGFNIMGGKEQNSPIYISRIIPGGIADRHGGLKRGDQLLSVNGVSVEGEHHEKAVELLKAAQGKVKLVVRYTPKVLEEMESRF

MAGI2_2, Q86UL8 = target: MAGI2_2, Q86UL8
Chain of MAGI2_2, Q86UL8 (Q86UL8 410-522): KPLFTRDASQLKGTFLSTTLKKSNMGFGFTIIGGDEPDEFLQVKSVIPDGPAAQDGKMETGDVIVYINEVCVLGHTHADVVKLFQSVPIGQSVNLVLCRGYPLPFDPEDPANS

MAGI2_5, Q86UL8 = target: MAGI2_5, Q86UL8
Chain of MAGI2_5, Q86UL8 (Q86UL8 915-1017): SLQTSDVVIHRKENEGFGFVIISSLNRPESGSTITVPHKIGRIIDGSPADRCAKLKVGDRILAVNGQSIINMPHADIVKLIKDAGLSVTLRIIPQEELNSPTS

MAGI3_2, Q5TCQ9 = target: MAGI3_2, Q5TCQ9
Chain of MAGI3_2, Q5TCQ9 (Q5TCQ9 398-503): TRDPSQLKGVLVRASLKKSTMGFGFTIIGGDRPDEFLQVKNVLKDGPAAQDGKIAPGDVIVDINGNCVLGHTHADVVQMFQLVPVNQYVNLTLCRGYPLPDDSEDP

NHERF2_2, Q15599 = target: NHERF2_2, Q15599
Chain of NHERF2_2, Q15599 (Q15599 142-238): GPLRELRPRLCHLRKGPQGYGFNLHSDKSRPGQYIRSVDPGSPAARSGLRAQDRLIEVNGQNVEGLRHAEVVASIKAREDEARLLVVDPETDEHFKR

NHERF3_3, Q5T2W1 = target: T7, NHERF3_3, Q5T2W1
T7 sequence (Q5T2W1 238-333, limits assumed, looked up): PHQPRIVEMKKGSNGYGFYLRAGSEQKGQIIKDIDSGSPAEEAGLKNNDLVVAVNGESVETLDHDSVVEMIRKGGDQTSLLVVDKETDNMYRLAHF

NHERF4_4, Q86UT5 = target: NHERF4_4, Q86UT5
Chain of NHERF4_4, Q86UT5 (Q86UT5 464-550): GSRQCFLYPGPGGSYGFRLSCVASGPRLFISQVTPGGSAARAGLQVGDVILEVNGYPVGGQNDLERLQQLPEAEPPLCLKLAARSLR

PARD3_3, Q8TEW0 = target: PARD3_3, Q8TEW0
Chain of PARD3_3, Q8TEW0 (Q8TEW0 582-685): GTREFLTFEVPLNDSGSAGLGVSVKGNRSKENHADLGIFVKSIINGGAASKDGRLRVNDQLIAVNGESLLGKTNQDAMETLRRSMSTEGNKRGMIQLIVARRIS

RAPGEF6, Q8TEU7 = target: T8, RAPGEF6, Q8TEU7
T8 sequence (Q8TEU7 525-625, limits assumed, looked up): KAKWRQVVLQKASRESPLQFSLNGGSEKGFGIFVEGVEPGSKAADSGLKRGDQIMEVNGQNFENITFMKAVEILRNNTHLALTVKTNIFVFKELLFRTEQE

SHANK1, Q9Y566 = target: T9, SHANK1, Q9Y566
T9 sequence (Q9Y566 658-767, limits assumed, looked up): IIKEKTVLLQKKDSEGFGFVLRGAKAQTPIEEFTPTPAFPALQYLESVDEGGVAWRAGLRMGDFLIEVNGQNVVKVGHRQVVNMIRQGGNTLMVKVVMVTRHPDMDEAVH

SNX27, Q96L92 = target: SNX27, Q96L92
[1] = plain residues with an end cap or a label only (N-terminal biotin on a linker: ahx)
[2] = plain residues with an end cap or a label only (N-terminal biotin on a linker: ado-ado)

Binder: APSRKLNTEI [TIAM1, Q13009]
- pKd (APBA3_1, O96018; [1]): below the threshold
- pKd (CARD11, Q9BXL7; [1]): below the threshold
- pKd (DFNB31_1, Q9P202; [1]): 3.55
- pKd (DLG2_2, Q15700; [1]): below the threshold
- pKd (DLG4_1, P78352; [1]): below the threshold
- pKd (FRMPD2_2, Q68DX3; [1]): below the threshold
- pKd (GRASP, Q7Z6J2; [1]): below the threshold
- pKd (GRID2IP_1, A4D2P6; [1]): below the threshold
- pKd (GRIP1_3, Q9Y3R0; [1]): below the threshold
- pKd (GRIP2_4, Q9C0E4; [1]): below the threshold
- pKd (GRIP2_7, Q9C0E4; [1]): below the threshold
- pKd (HTRA1, Q92743; [1]): below the threshold
- pKd (HTRA4, P83105; [1]): below the threshold
- pKd (Inadl_2, Q8NI35; [1]): below the threshold
- pKd (Inadl_6, Q8NI35; [1]): below the threshold
- pKd (LDB3, O75112; [1]): below the threshold
- pKd (LIMK2, P53671; [1]): below the threshold
- pKd (LIN7C, Q9NUP9; [1]): below the threshold
- pKd (MAGI2_2, Q86UL8; [1]): below the threshold
- pKd (MAGI2_5, Q86UL8; [1]): below the threshold
- pKd (MAGI3_2, Q5TCQ9; [1]): below the threshold
- pKd (NHERF2_2, Q15599; [1]): below the threshold
- pKd (NHERF3_3, Q5T2W1; [1]): below the threshold
- pKd (NHERF4_4, Q86UT5; [1]): below the threshold
- pKd (PARD3_3, Q8TEW0; [1]): below the threshold
- pKd (RAPGEF6, Q8TEU7; [1]): below the threshold
- pKd (SHANK1, Q9Y566; [1]): below the threshold
- pKd (SNX27, Q96L92; [1]): below the threshold

Binder: QSYPSKHDYV [CLDN18, P56856]
- pKd (APBA3_1, O96018; [2]): below the threshold
- pKd (CARD11, Q9BXL7; [2]): below the threshold
- pKd (DFNB31_1, Q9P202; [2]): 3.49
- pKd (DLG2_2, Q15700; [2]): below the threshold
- pKd (DLG4_1, P78352; [2]): 3.67
- pKd (FRMPD2_2, Q68DX3; [2]): below the threshold
- pKd (GRASP, Q7Z6J2; [2]): 3.71
- pKd (GRID2IP_1, A4D2P6; [2]): below the threshold
- pKd (GRIP1_3, Q9Y3R0; [2]): below the threshold
- pKd (GRIP2_4, Q9C0E4; [2]): below the threshold
- pKd (GRIP2_7, Q9C0E4; [2]): below the threshold
- pKd (HTRA1, Q92743; [2]): 4.32
- pKd (HTRA4, P83105; [2]): 4.12
- pKd (Inadl_2, Q8NI35; [2]): below the threshold
- pKd (Inadl_6, Q8NI35; [2]): below the threshold
- pKd (LDB3, O75112; [2]): below the threshold
- pKd (LIMK2, P53671; [2]): below the threshold
- pKd (LIN7C, Q9NUP9; [2]): below the threshold
- pKd (MAGI2_2, Q86UL8; [2]): below the threshold
- pKd (MAGI2_5, Q86UL8; [2]): below the threshold
- pKd (MAGI3_2, Q5TCQ9; [2]): below the threshold
- pKd (NHERF2_2, Q15599; [2]): below the threshold
- pKd (NHERF3_3, Q5T2W1; [2]): below the threshold
- pKd (NHERF4_4, Q86UT5; [2]): 4.03
- pKd (PARD3_3, Q8TEW0; [2]): 3.69
- pKd (RAPGEF6, Q8TEU7; [2]): below the threshold
- pKd (SHANK1, Q9Y566; [2]): below the threshold
- pKd (SNX27, Q96L92; [2]): 3.83

Binder: TESNLQTSSC [CGN, Q9P2M7]
- pKd (APBA3_1, O96018; [1]): below the threshold
- pKd (CARD11, Q9BXL7; [1]): below the threshold
- pKd (DFNB31_1, Q9P202; [1]): below the threshold
- pKd (DLG2_2, Q15700; [1]): below the threshold
- pKd (DLG4_1, P78352; [1]): below the threshold
- pKd (FRMPD2_2, Q68DX3; [1]): below the threshold
- pKd (GRASP, Q7Z6J2; [1]): 3.95
- pKd (GRID2IP_1, A4D2P6; [1]): below the threshold
- pKd (GRIP1_3, Q9Y3R0; [1]): below the threshold
- pKd (GRIP2_4, Q9C0E4; [1]): below the threshold
- pKd (GRIP2_7, Q9C0E4; [1]): below the threshold
- pKd (HTRA1, Q92743; [1]): below the threshold
- pKd (HTRA4, P83105; [1]): below the threshold
- pKd (Inadl_2, Q8NI35; [1]): below the threshold
- pKd (Inadl_6, Q8NI35; [1]): below the threshold
- pKd (LDB3, O75112; [1]): below the threshold
- pKd (LIMK2, P53671; [1]): below the threshold
- pKd (LIN7C, Q9NUP9; [1]): below the threshold
- pKd (MAGI2_2, Q86UL8; [1]): below the threshold
- pKd (MAGI2_5, Q86UL8; [1]): below the threshold
- pKd (MAGI3_2, Q5TCQ9; [1]): below the threshold
- pKd (NHERF2_2, Q15599; [1]): below the threshold
- pKd (NHERF3_3, Q5T2W1; [1]): below the threshold
- pKd (NHERF4_4, Q86UT5; [1]): below the threshold
- pKd (PARD3_3, Q8TEW0; [1]): below the threshold
- pKd (RAPGEF6, Q8TEU7; [1]): below the threshold
- pKd (SHANK1, Q9Y566; [1]): below the threshold
- pKd (SNX27, Q96L92; [1]): 4.65
